The values below come from patent publication US20170015742A1 (published 2017).

For assay [1], the target named is T1, recombinant human VEGF-A 165 (human, UniProt P15692 207-395).
T1 construct: also called huVEGF-A165; hVEGF165
Put plainly: receptor competition ELISA, biotinylated hVEGF165 binding to coated hVEGF-R2-Fc. How it is done: To identify molecules that could block the binding of hVEGF₁₆₅ to the hVEGF-R2 (KDR/Flk-1) receptor, a competition ELISA was performed. […] Plates were then washed four times with wash buffer (TBS, 0.05% Tween-20) and blocked with Superblock blocking buffer (Thermo Scientific, cat#37535). […] The pre-incubated sample/hVEGF₁₆₅ complex was added to the coated plate at 50 μL in duplicate and incubated for 30 minutes at 25° C. with shaking. Following incubation, plates were washed four times with wash buffer. Streptavidin-polyHRP-40 (Fitzgerald cal#65r-s104phrp) was diluted in assay diluent (10% Superblock containing 0.05% surfactamps) and added to plates (50 μL) for 45 minutes at 25° C. with shaking. Plates were washed four times with wash buffer and developed with the addition of Enhanced K-blue TMB substrate (Neogen cat#308177). The reaction was stopped with 2N sulfuric acid (VWR, cat# BDH3500-1) and the absorbance was read at 450 nm-570 nm. A decrease in observed optical density indicates the test molecule is blocking the hVEGF₁₆₅ binding to the hVEGF-R2-Fc. Data was analyzed using Softmax Pro 4.8 software and IC₅₀ values calculated using a sigmoidal dose response (variable slope) fit in GraphPad Prism 5.
Anti-VEGF-A antibodies derived from rat hybridomas were characterized for binding, function and cross-reactivity in a panel of assays. Supernatants were tested for the ability to bind hVEGF₁₆₅ (Example 1.3) and block binding of hVEGF₁₆₅ to hVEGFR2 in a competition ELISA format (Example 1.4).
(In an ELISA, binding on a coated surface is turned into a signal by an enzyme label.)

Assay [2] has as its target recombinant murine PDGF-BB (mouse, UniProt P31240 82-190). Put plainly: cell-based or functional assay.
Assay [3] deals with T2, recombinant cynomolgus PDGF-BB (cynomolgus monkey, UniProt P01127 82-190 (human entry), limits assumed).
T2 chain: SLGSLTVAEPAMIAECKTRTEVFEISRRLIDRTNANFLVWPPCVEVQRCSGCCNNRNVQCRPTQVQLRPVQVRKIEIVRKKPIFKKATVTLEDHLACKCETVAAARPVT
The assay is described as follows: cell-based or functional assay.

Assay [4] has as its target recombinant human VEGF165 (human, UniProt P15692 207-395). Put plainly: cell-based or functional assay.
Assay [5] addresses recombinant human PDGF-BB (human, UniProt P01127 82-190). Put plainly: cell-based or functional assay.

Changes are numbered by the printed parent chain.

T1 sequence (P15692 other isoform, or with tags, fused parts or gaps limits assumed): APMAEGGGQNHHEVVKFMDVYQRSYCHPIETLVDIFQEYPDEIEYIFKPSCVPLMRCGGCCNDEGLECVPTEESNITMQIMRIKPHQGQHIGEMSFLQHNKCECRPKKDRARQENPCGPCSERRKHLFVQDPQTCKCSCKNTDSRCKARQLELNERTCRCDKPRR
recombinant human VEGF165, sequence (P15692 other isoform, or with tags, fused parts or gaps limits assumed): as above
recombinant murine PDGF-BB, sequence (P31240 82-190 limits assumed): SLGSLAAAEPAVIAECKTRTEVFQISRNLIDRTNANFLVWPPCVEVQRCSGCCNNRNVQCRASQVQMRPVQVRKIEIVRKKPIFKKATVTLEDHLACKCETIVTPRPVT

B1: BEW-9C2-D6 (antibody, V domains shown)
VH: QIQLVQSGPELKKPGESVKVSCKASGYTFTNYGIHWVKQAPGQGLQYVGWINTETGRPTYADDFKGRFVFFLETSASTAYLQINNLKNEDMATYFCARPLYYGYAHYFDYWGQGVMVTVSS
VL: DIQMTQSPASLSASLEEIVTITCQASQDIGNWLAWYQQKPGKSPQLLIYGATSLADGVPSRFSGSRSGTQYSLKISRLQVEDIGIYYCQQASSVTYTFGAGTKLELK
notes: Rat hybridoma anti-human VEGF-A monoclonal antibody, isotype IgG2b/kappa
For orientation: IC50 means the concentration that inhibits the measured activity by half. For B1, the IC50 in assay [1] worked out at 0.155 nM.

B2: 4G8.3-LS-9E8.4 (g) anti-VEGF-A/anti-PDGF-BB DVD-Ig (PR-1572106) (bispecific antibody, human IgG1, kappa, L234A L235A)
heavy: EVQLVQSGSELKKPGASVKVSCKASGYTFTNYGMYWVRQAPGQGLEWMGWINTETGKPTYADDFKGRFVFSLDTSVSTAYLQISSLKAEDTAVYYCARTNYYYRSYIFYFDYWGQGTMVTVSSASTKGPSVFPLAPEVTLRESGPALVKPTQTLTLTCTFSGFSLSTYGMGVGWIRQPPGKALEWLANIWWDDDKYYNPSLKNRLTISKDTSKNQVVLTMTNMDPVDTATYYCARIESIGTTYSFDYWGQGTMVTVSSASTKGPSVFPLAPSSKSTSGGTAALGCLVKDYFPEPVTVSWNSGALTSGVHTFPAVLQSSGLYSLSSVVTVPSSSLGTQTYICNVNHKPSNTKVDKKVEPKSCDKTHTCPPCPAPEAAGGPSVFLFPPKPKDTLMISRTPEVTCVVVDVSHEDPEVKFNWYVDGVEVHNAKTKPREEQYNSTYRVVSVLTVLHQDWLNGKEYKCKVSNKALPAPIEKTISKAKGQPREPQVYTLPPSREEMTKNQVSLTCLVKGFYPSDIAVEWESNGQPENNYKTTPPVLDSDGSFFLYSKLTVDKSRWQQGNVFSCSVMHEALHNAYTQKSLSLSPGK
light: DTVLTQSPATLSLSPGERATLSCRASESVSTHMHWYQQKPGQAPRLLIYGASNLESGVPARFSGSGSGTDFTLTISSLEPEDFAVYFCQQSWNDPFTFGQGTKLEIKRTVAAPEFVLTQSPGTLSLSPGERATLSCERSSGDIGDSYVSWYQQKPGQAPRLVIYADDQRPSGIPDRFSGSGSGTDFTLTISRLEPEDFAVYYCQSYDINIDIVFGGGTKVEIKRTVAAPSVFIFPPSDEQLKSGTASVVCLLNNFYPREAKVQWKVDNALQSGNSQESVTEQDSKDSTYSLSSTLTLSKADYEKHKVYACEVTHQGLSSPVTKSFNRGEC
For the molecule B2, the “Potency IC50 (nM) mPDGF-BB (NIH-3T3 proliferation)” value in assay [2] was 0.14 nM. Besides, the “Potency IC50 (nM) cynoPDGF-BB (NIH-3T3 proliferation)” value in assay [3] is 0.094 nM.

B3: BEW-1B10-B9-C3 (antibody, V domains shown)
VH: EVQLVESGGGLVQPGRSLKLSCAASGFSFSKYDMAWFRQTPTKGLEWVASITTSGVGTYYRDSVKGRFTVSRDNAKSTLYLQMDSLRSEDTATYYCARGYGAMDAWGQGTSVTVSS
VL: DIQMTQSPASLSASLEEIVTITCKASQDIDDYLSWYQQKPGKSPQLVIYAATRLADGVPSRFSGSGSGTQYSLKISRLQVDDSGIYYCLQSSSTPWTFGGGTNLELK
notes: Rat hybridoma anti-human VEGF-A monoclonal antibody, isotype IgG2a/kappa
With B3, in assay [1], the half-maximal inhibitory concentration (IC50) was found to be 0.326 nM.

B4: BED-4G10-C8 (antibody, V domains shown)
VH: QVQLQQSGTELVKPGSSVKISCKASGYTFTSNYMHWIRQQPGNGLEWIGWIYPGDGDTNYNHNFNGKATLTADKSSSTAYMQLSSLTSEDFAVYFCASSTRAIPGWFTYWGQGTLVTVSS
VL: DTVLTQSPALAVSPGERVSISCWASESVSTLMHWYQQKLGQQPKLLIYGASNLESGVPARFRGSGSGTDFTLTIDPVEADDTATYFCQQSWSDPYTFGAGTKLELK
notes: as for B1
Take B4: the half-maximal inhibitory concentration (IC50) in assay [1] came to 0.13 nM.

B5: BDB-4G8-D4 (antibody, V domains shown)
VH: QIQLVQSGPELKKPGESVKISCKASGYTFTNYGMYWVKQAPGQGLQYMGWINTETGKPTYADDFKGRFVFFLETSASTAYLQINNLKNEDMATYFCARTNYYYRSYIFYFDYWGQGTMVTVSS
VL: B4 VL with W23R, L31H, L39P, R62S, S92N, Y95F, G100V
notes: as for B1
For the molecule B5, the IC50 in assay [1] amounted to 0.13 nM.

B6: BEW-9E7-B4 (antibody, V domains shown)
VH: QIQLVQSGPELKKPGESVKISCKASGYTFTNYGMYWVKQAPGQGLQYMGWIDTETGKPTYADDFKGRFVFFLETSASTAYLQINNLRNEDMATYFCARWGYTSDYYYGWFPDWGQGTLVTVST
VL: DTVLTQSPALAVSPGERVSISCRASEGVNSYMHWYQQNPGQQPKLLIYKASNLASGVPARFSGSGSGTDFTLNIHPVEADDTATYFCQQNWNVPLTFGSGTKLEIK
notes: as for B1
Turning to B6, the concentration for half-maximal inhibition (IC50) in assay [1] is 0.207 nM.

B7: BEW-9D2-E8 (antibody, V domains shown)
VH: QIQLVQSGPELKKPGESVKISCKASGYTFTNYGMYWVKLAPGQGLQYLGWINTETGKPTYADDFKGRFVFFLETSASTAYLQINNLRNEDMATYFCARPSDYYDGFWFAYWGQGTLVTVSS
VL: B6 VL with A11T, G27W, N73T, I74L, H75D, N90S, V93D
notes: as for B3
With B7, the concentration for half-maximal inhibition (IC50) in assay [1] worked out at 0.127 nM.

B8: CODV015 cross-over DVD-Ig (PR-1571827) (bispecific antibody, human IgG1, kappa, L234A L235A)
heavy: EVQLVQSGSELKKPGASVKVSCKASGYTFTNYGMYWVRQAPGQGLEWMGWINTETGKPTYADDFKGRFVFSLDTSVSTAYLQISSLKAEDTAVYYCARTNYYYRSYIFYFDYWGQGTMVTVSSGGGGSGGGEFVLTQSPGTLSLSPGERATLSCERSSGDIGDSYVSWYQQKPGQAPRLVIYADDQRPSGIPDRFSGSGSGTDFTLTISRLEPEDFAVYYCQSYDINIDIVFGGGTKVEIKGGGSGASTKGPSVFPLAPSSKSTSGGTAALGCLVKDYFPEPVTVSWNSGALTSGVHTFPAVLQSSGLYSLSSVVTVPSSSLGTQTYICNVNHKPSNTKVDKKVEPKSCDKTHTCPPCPAPEAAGGPSVFLFPPKPKDTLMISRTPEVTCVVVDVSHEDPEVKFNWYVDGVEVHNAKTKPREEQYNSTYRVVSVLTVLHQDWLNGKEYKCKVSNKALPAPIEKTISKAKGQPREPQVYTLPPSREEMTKNQVSLTCLVKGFYPSDIAVEWESNGQPENNYKTTPPVLDSDGSFFLYSKLTVDKSRWQQGNVFSCSVMHEALHNAYTQKSLSLSPGK
light: EVTLRESGPALVKPTQTLTLTCTFSGFSLSTYGMGVGWIRQPPGKALEWLANIWWDDDKYYNPSLKNRLTISKDTSKNQVVLTMTNMDPVDTATYYCARIESIGTTYSFDYWGQGTMVTVSSGGGGSGGGDTVLTQSPATLSLSPGERATLSCRASESVSTHMHWYQQKPGQAPRLLIYGASNLESGVPARFSGSGSGTDFTLTISSLEPEDFAVYFCQQSWNDPFTFGQGTKLEIKGGSRTVAAPSVFIFPPSDEQLKSGTASVVCLLNNFYPREAKVQWKVDNALQSGNSQESVTEQDSKDSTYSLSSTLTLSKADYEKHKVYACEVTHQGLSSPVTKSFNRGEC
In the case of B8, in assay [4], the “HMVEC-d hVEGF165 Potency IC50” value was 0.104 nM. Besides, in assay [5], the “NIH-3T3 hPDGF-BB Potency IC50” value stood at 0.075 nM.

B9: CODV016 cross-over DVD-Ig (PR-1571828) (bispecific antibody, human IgG1, kappa, L234A L235A)
heavy: B8 heavy
light: EVTLRESGPALVKPTQTLTLTCTFSGFSLSTYGMGVGWIRQPPGKALEWLANIWWDDDKYYNPSLKNRLTISKDTSKNQVVLTMTNMDPVDTATYYCARIESIGTTYSFDYWGQGTMVTVSSGGGGSDTVLTQSPATLSLSPGERATLSCRASESVSTHMHWYQQKPGQAPRLLIYGASNLESGVPARFSGSGSGTDFTLTISSLEPEDFAVYFCQQSWNDPFTFGQGTKLEIKGGSRTVAAPSVFIFPPSDEQLKSGTASVVCLLNNFYPREAKVQWKVDNALQSGNSQESVTEQDSKDSTYSLSSTLTLSKADYEKHKVYACEVTHQGLSSPVTKSFNRGEC
B9: the “HMVEC-d hVEGF165 Potency IC50” value in assay [4] was determined as 0.115 nM. Further, the “NIH-3T3 hPDGF-BB Potency IC50” value in assay [5] came to 0.096 nM.

B10: BEW-3A1-D10-G9 (antibody, V domains shown)
VH: QVQLEQSGAELVKPGTSVKLSCMASGYTSSSNHMNWMKQTTGQGLEWIGIINPGSGGTRYNVKFEGKATLTVDKSSSTAFMQLNSLTPEDSAVYYCARAGFPGPFSYYAMGAWGQGTSVTVSS
VL: DIQMTQSPPVLSASVGDRVTLSCKASQNIHNNLDWYQQKHGEAPKLLIFYTNNLQTGIPSRFSGSGSGTDYTLTISSLQPEDVATYYCYQYNSGYTFGAGTKLELK
notes: as for B1
For B10, the IC50 in assay [1] was 0.124 nM.
